Experiment [1] has as its target T1, PKA catalytic subunit (mouse, type α, PKAc) fused to Venus YFP PCA fragment F[2] (mouse, UniProt P05132 1-351). Briefly: Venus YFP protein-fragment complementation assay in cells.
Experiment [2] concerns the target T2, PKA regulatory subunit RIIβ (rat, type IIβ) fused to Venus YFP PCA fragment F[2] (rat, UniProt P12369 1-416).
T2 construct: Expressed in COS7 or HEK293 cells from pcDNA3.1; also called RIIβ-F[2]; RegIIβ; not shown: Venus variant of yellow fluorescent protein (YFP), C-terminal fragment F[2], amino acids 159-239
The experiment in a line: Venus YFP protein-fragment complementation assay in COS7 cells.

Experiment [3] addresses T1, PKA catalytic subunit (mouse, type α, …). The description is as above.

The values that follow come from US20150005237A1 (UNIVERSIT T INNSBRUCK, published 2015).

T2 sequence (P12369 other isoform, or with tags, fused parts or gaps): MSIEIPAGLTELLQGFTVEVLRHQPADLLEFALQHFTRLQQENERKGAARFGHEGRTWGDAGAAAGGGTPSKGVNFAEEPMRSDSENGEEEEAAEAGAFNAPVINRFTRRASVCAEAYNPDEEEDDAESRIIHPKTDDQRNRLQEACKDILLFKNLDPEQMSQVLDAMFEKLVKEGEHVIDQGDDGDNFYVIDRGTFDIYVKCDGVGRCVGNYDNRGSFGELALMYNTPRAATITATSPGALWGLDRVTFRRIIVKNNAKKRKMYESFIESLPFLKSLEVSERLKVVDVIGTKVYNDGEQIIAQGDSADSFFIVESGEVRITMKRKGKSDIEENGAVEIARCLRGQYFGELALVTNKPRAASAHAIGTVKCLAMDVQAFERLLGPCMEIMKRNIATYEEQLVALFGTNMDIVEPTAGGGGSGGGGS

B1: Phosphoinositide-dependent kinase 1 (PDK1) fused to Venus YFP PCA fragment F[1] (enzyme, UniProt Q9Z2A0 1-559, looked up)
chain: MARTTSQLYDAVPIQSSVVLCSCPSPSMVRSQTEPGSSPGIPSGVSRQGSTMDGTTAEARPSTNPLQQHPAQLPPQPRKKRPEDFKFGKILGEGSFSTVVLARELATSREYAIKILEKRHIIKENKVPYVTRERDVMSRLDHPFFVKLYFTFQDDEKLYFGLSYAKNGELLKYIRKIGSFDETCTRFYTAEIVSALEYLHGKGIIHRDLKPENILLNEDMHIQITDFGTAKVLSPESKQARANSFVGTAQYVSPELLTEKSACKSSDLWALGCIIYQLVAGLPPFRAGNEYLIFQKIIKLEYHFPEKFFPKARDLVEKLLVLDATKRLGCEEMEGYGPLKAHPFFETITWENLHQQTPPKLTAYLPAMSEDDEDCYGNYDNLLSQFGFMQVSSSSSSHSLSTVETSLPQRSGSNIEQYIHDLDTNSFELDLQFSEDEKRLLLEKQAGGNPWHQFVENNLILKMGPVDKRKGLFARRRQLLLTEGPHLYYVDPVNKVLKGEIPWSQELRPEAKNFKTFFVHTPNRTYYLMDPSGNAHKWCRKIQEVWRQQYQSNPDAAVQ
notes: Prey fused to F[1]; not shown: Venus variant of yellow fluorescent protein (YFP), N-terminal fragment F[1], amino acids 1-158
Consider B1, for which the binding result in experiment [1] is on record as “binds”.

B2: Gαi3 fused to Venus YFP PCA fragment F[1] (other, UniProt Q9DC51 1-354, looked up)
chain: MGCTLSAEDKAAVERSKMIDRNLREDGEKAAKEVKLLLLGAGESGKSTIVKQMKIIHEDGYSEDECKQYKVVVYSNTIQSIIAIIRAMGRLKIDFGESARADDARQLFVLAGSAEEGVMTSELAGVIKRLWRDGGVQACFSRSREYQLNDSASYYLNDLDRISQTNYIPTQQDVLRTRVKTTGIVETHFTFKELYFKMFDVGGQRSERKKWIHCFEGVTAIIFCVALSDYDLVLAEDEEMNRMHESMKLFDSICNNKWFTDTSIILFLNKKDLFEEKIKRSPLTICYPEYTGSNTYEEAAAYIQCQFEDLNRRKDTKEVYTHFTCATDTKNVQFVFDAVTDVIIKNNLKECGLY
notes: Prey fused to F[1]; also called Gαi isoform 3 prey; not shown: Venus variant of yellow fluorescent protein (YFP), N-terminal fragment F[1], amino acids 1-158
On to B2, for which the binding result in experiment [2] is given as “binds”; in experiment [3], “no binding”.

B3: Gαi2 fused to Venus YFP PCA fragment F[1] (other, UniProt P08752 1-355, looked up)
chain: MGCTVSAEDKAAAERSKMIDKNLREDGEKAAREVKLLLLGAGESGKSTIVKQMKIIHEDGYSEEECRQYRAVVYSNTIQSIMAIVKAMGNLQIDFADPQRADDARQLFALSCAAEEQGMLPEDLSGVIRRLWADHGVQACFGRSREYQLNDSAAYYLNDLERIAQSDYIPTQQDVLRTRVKTTGIVETHFTFKDLHFKMFDVGGQRSERKKWIHCFEGVTAIIFCVALSAYDLVLAEDEEMNRMHESMKLFDSICNNKWFTDTSIILFLNKKDLFEEKITQSSLTICFPEYTGANKYDEAASYIQSKFEDLNKRKDTKEIYTHFTCATDTKNVQFVFDAVTDVIIKNNLKDCGLF
notes: Prey fused to F[1]; also called Gαi isoform 2 prey; not shown: Venus variant of yellow fluorescent protein (YFP), N-terminal fragment F[1], amino acids 1-158
On to B3, for which the binding result in experiment [2] is listed as “binds”; in experiment [3], “no binding”.
